From patent US20150274836A1 (US Dept. of Health and Human Services, published 2015)

Tests used:
[1] = target: T1, SD1-human Fc fusion protein (human, UniProt P01857 104-330 = IgG part); test: ELISA on coated human mesothelin protein (FIG. 3C)
T1 construct: domain: CH2 and CH3 in the constant region of human IgG heavy chain gamma 1; also called SD1-hFc

[2] = target: T1, SD1-human Fc fusion protein; test: ELISA on coated human mesothelin protein, equilibrium constant by Prism / Scatchard
[3] = target: T1, SD1-human Fc fusion protein; test: direct ELISA, coated antigen

T1 sequence (P01857 other isoform, or with tags, fused parts or gaps limits assumed): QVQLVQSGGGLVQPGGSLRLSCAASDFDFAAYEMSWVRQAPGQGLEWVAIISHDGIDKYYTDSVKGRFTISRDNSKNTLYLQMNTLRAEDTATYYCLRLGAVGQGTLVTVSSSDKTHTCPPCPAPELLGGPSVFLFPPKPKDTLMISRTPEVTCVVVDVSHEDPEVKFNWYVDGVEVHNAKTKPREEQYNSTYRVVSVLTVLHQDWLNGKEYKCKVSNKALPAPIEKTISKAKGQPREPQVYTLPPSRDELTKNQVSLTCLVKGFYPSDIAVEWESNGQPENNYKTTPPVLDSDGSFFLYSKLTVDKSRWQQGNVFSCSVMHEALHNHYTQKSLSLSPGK

B1: full-length human mesothelin protein (other)
chain: EVEKTACPSGKKAPEIDESLIFYKKWELEACVDAALLATQMDRVNAIPFTYEQLDVLKHKLDELYPQGYPESVIQHLGYLFLKMSPEDIRKWNVTSLETLKALLEVNKGHEMSPQVATLIDRFVKGRGQLDKDTLDTLTAFYPGYLCSLSPEELSSVPPSSIWAVRPQDLDTCDPRQLDVLYPKARLAFQNMNGSEYFVKIQSFLGGAPTEDLKALSQQNVSMDLATFMKLRTDAVLPLTVAEVQKLLGPHVEGLKAEERHRPVRDWILRQRQDDLDTLGLGLQGGIPNGYLVLDLSMQEALS
notes: also called MSLN; full-length mesothelin
- Kd [1]: 13.6 nM
- Kd [2]: 13.6 nM

B2: full-length mouse mesothelin protein (other)
chain: DAEQKACPPGKEPYKVDEDLIFYQNWELEACVDGTMLARQMDLVNEIPFTYEQLSIFKHKLDKTYPQGYPESLIQQLGHFFRYVSPEDIHQWNVTSPDTVKTLLKVSKGQKMNAQAIALVACYLRGGGQLDEDMVKALGDIPLSYLCDFSPQDLHSVPSSVMWLVGPQDLDKCSQRHLGLLYQKACSAFQNVSGLEYFEKIKTFLGGASVKDLRALSQHNVSMDIATFKRLQVDSLVGLSVAEVQKLLGPNIVDLKTEEDKSPVRDWLFRQHQKDLDRLGLGLQGGIPNGYLVLDFNVREAFS
notes: also called mMSLN; murine mesothelin
- binding result [3]: no binding
